Experimental data published in patent US20190169311A1.

Tests used:
[1] = target: TFECDHis (human) (UniProt P13726); test: cross-competition ELISA; competitor: coated 44
[2] = target: TFECDHis (human) (UniProt P13726); test: cross-competition ELISA; competitor: coated 111
[3] = target: TFECDHis (human) (UniProt P13726); test: SPR (BIAcore 3000), antibody immobilized, TFECDHis as analyte
[4] = target: TFECDHis (human) (UniProt P13726); test: cross-competition ELISA; competitor: coated 114
[5] = target: TFECDHis (human) (UniProt P13726); test: cross-competition ELISA; competitor: coated 11
[6] = target: TFECDHis (human) (UniProt P13726); test: ELISA, coated TFECDHis; mean of 3 experiments
[7] = target: TFECDHis (human) (UniProt P13726); test: cross-competition ELISA; competitor: coated 101
[8] = target: TFECDHis (human) (UniProt P13726); test: cross-competition ELISA; competitor: coated 087-Lg6
[9] = target: TFECDHis (human) (UniProt P13726); test: cross-competition ELISA; competitor: coated 092-A09

- competition value (unit not given) [1]: 143
- competition value (unit not given) [2]: 175
- Kd [3]: 3.15 nM
- competition value (unit not given) [4]: 19
- competition value (unit not given) [5]: 20
- EC50 [6]: 0.16 nM
- competition value (unit not given) [7]: 23
- competition value (unit not given) [8]: 929
- competition value (unit not given) [9]: 21
Substance: HuMab-TF-011 (antibody)
